This passage reports Kd results from publication PMC2991585.

This test addresses actin filament (barbed end) (UniProt P68135). Put plainly: seeded pyrene-actin polymerization.

The term Kd denotes the equilibrium constant for the complex coming apart. Low values mean higher affinity, high ones lower affinity. In turn, “CPαβ(ΔC34) (from UniProt P47753 1-286; P47757-2 1-272) (complex)” came in with an equilibrium dissociation constant (Kd) of 33.2 nM.
